Laboratory results reported in publication PMC7666189.

Substrate: O=C(/C=C/c1ccc(O)c(O)c1)O[C@@H]1C[C@](O)(C(=O)O)C[C@@H](O)[C@H]1O
Test: purified protein
Settings: 5-CQA as sole substrate (acyl donor and acceptor), 0-30 mM, enzyme from N. benthamiana, optimum pH 6.3 and 39.9 °C, pH and temperature of the Km assay not given

B1: IbICS (Ipomoea batatas) (protein)
chain: CYSAVFGFGDSLTDAGNLIRLEPDGTVPHMYFPPYGETYFDKPTGRCSDGRLIVDLIAQHYGLPLPPPSIPASLEGDKNRLRAGVNFAVVGSRALDAQFYEQRDIFDTVTNVSMTDQLNWFKELLPSLCSSPHDCKELLDGSLFVLGEFGGNDYTHSLLSGKGINVIRPFIPIVTRAIAQAVHELVELGARTVMIPSVLPLGCAASYLTYYPSPNPDDYDELGCLIWVNEMASYHNQLLQQQLAHVRELHPYANIVFADIYNAAMEVYQGPDTYGFSGGALRACCGGGGPYNFNTSAQCGNEGATACDNPSSYVNWDGYHLTEAAYQCITTGLLEGPYTYPRMKNLCRFDSRKTSRVAQI
  Km: 3.5 mM
